# ± gives the uncertainty stated by the source.
# Assay: self-splicing fitness, log relative to wild type (ln ratio); higher = more splicing; Tetrahymena group I intron in knt gene, E. coli kanamycin selection, DiMSum; sequences stand for … in CUCUCU…GGAGGGAAAAGUUAUCAGGCAUGCACCUGGUAGCUAGUCUUUAAACCAAUAGAUUGCAUCGGUUUAAAAGGCAAGACCGUCAAAUUGCGGGAAAGGGGUCAACAGCCGUUCAGUACCAAGUCUCAGGGGAAACUUUGAGAUGGCCUUGCAAAGGGUAUGGUAAUAAGCUGACGGACAUGGUCCUAACCACGCAGCCAAGUCCUAAGUCAACAGAUCUUCUGUUGAUAUGGAUGCAGUUCACAGACUAAAUGUCGGUCGGGGAAGAUGUAUUCUUCUCAUAAGAUAUAGUCGGACCUCUCCUUAAUGGGAGCUAGCGGAUGAAGUGAUGCAACACUGGAGCCGCUGGGAACUAAUUUGUAUGCGAAAGUAUAUUGAUUAGUUUUGGAGUACUCGUGGUCG
# How it was run: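 The eight P1ex-region nucleotides of an intron in the knt kanamycin-resistance gene on pET-22b(+) were all randomised and the library put into E. coli BL21(DE3). Six replicate transformations were grown overnight at 37°C or 30°C on LB agar with or without 25 μg/mL kanamycin, together with 100 μg/mL carbenicillin, 50 μM IPTG and 0.2% rhamnose. Colonies were pooled and amplicon-sequenced on an Illumina HiSeq 2500. Fitness from DiMSum is the error-weighted combination of wild-type-normalised replicate fold changes, kanamycin over none.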
Sequence,self-splicing fitness (ln) (30 °C),self-splicing fitness (ln) (37 °C)
AGACAGCAAUAUUACGUGCG,-0.833 ± 0.077,-0.653 ± 0.083
AGACAGCAAUAUUACGUGUG,-2 ± 0.063,-1.44 ± 0.072
AGAGAGCAAUAUUACGACGC,-2.54 ± 0.34,-0.3 ± 0.28
AGAGAGCAAUAUUACGAGGC,-2.09 ± 0.25,
AGAGAGCAAUAUUACGAUUC,-3.41 ± 0.35,-1.24 ± 0.32
AGAGAGCAAUAUUACGCAGG,-2.58 ± 0.13,-3.21 ± 0.33
AGAGAGCAAUAUUACGCGCU,-1.89 ± 0.35,
AGAGAGCAAUAUUACGCUGG,-3.07 ± 0.27,-2.4 ± 0.32
AGAGAGCAAUAUUACGGCCC,-1.82 ± 0.28,-1.71 ± 0.48
AGAGAGCAAUAUUACGGCUU,-1.65 ± 0.16,-1.15 ± 0.25
AGAGAGCAAUAUUACGGUCG,-3.33 ± 0.35,-1.63 ± 0.35
AGAGAGCAAUAUUACGUAGG,,-2.16 ± 0.43
AGAGAGCAAUAUUACGUGGG,-3.01 ± 0.17,-2.71 ± 0.28
AGAGAGCAAUAUUACGUGUG,-3.84 ± 0.16,-3.07 ± 0.24
AGAGAGCAAUAUUACGUUGG,-3.15 ± 0.14,-2.76 ± 0.18
AGAUAGCAAUAUUACGAACU,-0.83 ± 0.16,0.533 ± 0.17
AGAUAGCAAUAUUACGACAC,-1.11 ± 0.12,-0.486 ± 0.15
AGAUAGCAAUAUUACGACUA,-1.03 ± 0.14,-0.165 ± 0.13
AGAUAGCAAUAUUACGAGAU,-3.02 ± 0.25,-1.69 ± 0.27
AGAUAGCAAUAUUACGAUGA,-1.5 ± 0.13,-0.349 ± 0.097
AGAUAGCAAUAUUACGCACU,-1.22 ± 0.1,-0.664 ± 0.14
AGAUAGCAAUAUUACGCAGA,-2.95 ± 0.18,-2.32 ± 0.2
AGAUAGCAAUAUUACGCGGA,-2.98 ± 0.13,-0.482 ± 0.093
AGAUAGCAAUAUUACGCGUU,-2.34 ± 0.14,-0.0669 ± 0.13
AGAUAGCAAUAUUACGCUAU,-3.58 ± 0.4,-3.47 ± 0.24

Sequence,self-splicing fitness (ln) (30 °C),self-splicing fitness (ln) (37 °C)
AGAUAGCAAUAUUACGGAGA,-1.91 ± 0.18,-2.76 ± 0.38
AGAUAGCAAUAUUACGGAGC,-3.24 ± 0.29,-1.5 ± 0.28
AGAUAGCAAUAUUACGGCCA,0.117 ± 0.33,-0.323 ± 0.26
AGAUAGCAAUAUUACGGGCC,-1.68 ± 0.19,-2.68 ± 0.36
AGAUAGCAAUAUUACGGUAA,-1.79 ± 0.2,-1.34 ± 0.19
AGAUAGCAAUAUUACGGUAC,-3.91 ± 0.28,-2.42 ± 0.22
AGAUAGCAAUAUUACGGUCU,-2 ± 0.17,-2.8 ± 0.22
AGAUAGCAAUAUUACGUAUC,-2.64 ± 0.17,-1.71 ± 0.18
AGAUAGCAAUAUUACGUCCG,0.235 ± 0.1,-0.122 ± 0.11
AGAUAGCAAUAUUACGUGUC,-3.36 ± 0.28,-3.11 ± 0.27
AGAUAGCAAUAUUACGUUAA,-2.88 ± 0.18,-2.01 ± 0.18
AGCAAGCAAUAUUACGAGUC,-3.5 ± 0.16,-1.84 ± 0.14
AGCAAGCAAUAUUACGAUAA,-2.16 ± 0.12,0.308 ± 0.11
AGCAAGCAAUAUUACGAUCC,-1.8 ± 0.18,1.31 ± 0.25
AGCAAGCAAUAUUACGCACA,-0.316 ± 0.082,0.365 ± 0.12
AGCAAGCAAUAUUACGCAGC,-2.98 ± 0.27,-2.1 ± 0.35
AGCAAGCAAUAUUACGCAUA,-1.96 ± 0.14,-1.06 ± 0.15
AGCAAGCAAUAUUACGCGAC,-2.95 ± 0.25,-2.35 ± 0.26
AGCAAGCAAUAUUACGCGAU,-3.51 ± 0.37,-0.149 ± 0.18
AGCAAGCAAUAUUACGGACG,-0.404 ± 0.061,-0.244 ± 0.086
AGCAAGCAAUAUUACGGAUG,-2.27 ± 0.14,-2.17 ± 0.17
AGCAAGCAAUAUUACGGCUC,-4.6 ± 0.27,-3.41 ± 0.4
AGCAAGCAAUAUUACGGUCA,-0.46 ± 0.07,0.00074 ± 0.084
AGCAAGCAAUAUUACGGUCC,-0.25 ± 0.07,-0.276 ± 0.081
